Assay results taken from publication PMC11869524, “A leucine responsive small RNA AbcR200 regulates expression of the lactate utilization (lut) operon in Acinetobacter baumannii DS002” (The Journal of Biological Chemistry, 2025).
“And” between values parts separate entries of the source, which are not always exact repeats. Identical values can stand only once.

Columns and labels:
[1] = target: the molecule itself; assay: cross-linking; 23 uM purified AbLrp^C6His dialyzed against 20 mM Hepes, 150 mM NaCl, pH 8.0; DSS (3 mM), 30 min at room temperature, quenched with Tris-Cl; SDS-PAGE (12.5%) and Western blot with anti-His antibodies; without leucine, with or without DNA (300 ng) containing the Lrp binding site
[2] = target: the molecule itself; assay: cross-linking; 23 uM purified AbLrp^C6His dialyzed against 20 mM Hepes, 150 mM NaCl, pH 8.0; DSS (3 mM), 30 min at room temperature, quenched with Tris-Cl; SDS-PAGE (12.5%) and Western blot with anti-His antibodies; with leucine (5 mM), with or without DNA (300 ng) containing the Lrp binding site

B1: A. baumannii DS002 Lrp protein (AbLrp^C6His), leucine responsive regulatory protein (natural protein, Acinetobacter baumannii DS002, UniProt V5VJ98 1-155, looked up)
chain: MRPLDRIDRMILDILQREGRIAISELASRVNLSTTPCSERVKRLERDGIIMGYYARLNPAYVDRNLLVFLEIKLSAKSGDVFDQVARDLVEIPEVLECHLISGEFDYLVKARLKEMSAYRRLLGDLLKKLPASASSHSYVVMEEVKETLYLDVSK
notes: Leucine responsive regulatory protein (Lrp) of Acinetobacter baumannii DS002; lrp gene amplified from chromosomal DNA with primers HS36 FP/HS36 RP and cloned in pET23b as NdeI and XhoI fragment (pHS10); not shown: His6, C-terminal, kept
Q: Which results are given for B1?
A: stoichiometry N [1]: 4; stoichiometry N [2]: 2 and 3
